B1: 5208H10 (SI-64CH5) (antibody, V domains shown)
VH: QSVKESEGGLFKPTDTLTLTCTVSGFSLSTYAMSWVRQAPGNGLEWIGIIDAVGRTYYASWAKSRSTITRNTNLNTVTLKMTSLTAADTATYFCARWWDLWGQGTLVTVSS
VL: AQVLTQTASSVSAAVGGTVTINCQSSQSVYDSNDLTWYQQKPGQSPKLLIYLASTLASGVPSRFKGSGSGTQFTLTISDLECDDSATYYCAAHYNSDIYTFGGGTEVEVK
B2: 5103F3 BSM (SI-64M1) (antibody, V domains shown)
VH: QVQLQESGGRLIKPGEPLRLSCKTSGIDLSGFAMGWVRQAPGKGLEYIGFIDSGGGAFYATWARGRFTISRTSTNTVYLQMNSLTAEDTAVYYCARHGGNTYYYAMDPWGPGTLVTVSS
VL: ALRMTQSPSSLAATTGQRVTITCQASQSISNYLAWYQQKPGQPPKLLIYSASTLASGVPSRFKGSGSGTQFTLTISCVQCEDFATYYCQQVYSVTNIDNAFGGGTRVEIK
B3: Zolbetuximab (SI-64C8) (antibody, V domains shown)
VH: QVQLQQPGAELVRPGASVKLSCKASGYTFTSYWINWVKQRPGQGLEWIGNIYPSDSYTNYNQKFKDKATLTVDKSSSTAYMQLSSPTSEDSAVYYCTRSWRGNSFDYWGQGTTLTVSS
VL: DIVMTQSPSSLTVTAGEKVTMSCKSSQSLLNSGNQKNYLTWYQQKPGQPPKLLIYWASTRESGVPDRFTGSGSGTDFTLTISSVQAEDLAVYYCQNDYSYPFTFGSGTKLEIKR

Experiments:
[1] = molecular target: T1, human Claudin18.2 (human, UniProt P56856); experiment: BLI
[2] = molecular target: T2, rat Claudin18.1 (rat, UniProt Q5I0E5); experiment: FACS
T2 chain: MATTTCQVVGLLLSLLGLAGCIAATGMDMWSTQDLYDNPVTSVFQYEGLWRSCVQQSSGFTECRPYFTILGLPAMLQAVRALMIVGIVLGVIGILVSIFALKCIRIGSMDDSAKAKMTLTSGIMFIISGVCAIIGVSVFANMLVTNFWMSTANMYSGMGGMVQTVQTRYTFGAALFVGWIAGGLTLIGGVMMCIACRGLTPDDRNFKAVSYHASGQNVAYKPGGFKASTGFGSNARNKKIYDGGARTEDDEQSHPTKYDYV

[3] = molecular target: T1, human Claudin18.2; experiment: BLI, bivalent
[4] = molecular target: T3, mouse Claudin18.1 (mouse, UniProt P56857); experiment: FACS
T3 chain: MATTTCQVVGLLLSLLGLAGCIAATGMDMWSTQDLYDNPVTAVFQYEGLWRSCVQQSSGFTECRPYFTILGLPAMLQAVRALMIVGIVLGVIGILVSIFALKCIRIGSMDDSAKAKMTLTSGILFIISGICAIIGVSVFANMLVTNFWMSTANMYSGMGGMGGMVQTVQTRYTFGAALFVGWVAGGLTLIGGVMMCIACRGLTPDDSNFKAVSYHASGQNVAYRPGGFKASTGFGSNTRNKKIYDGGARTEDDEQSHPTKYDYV

[5] = molecular target: T4, mouse Claudin18.2 (mouse, UniProt P56857); experiment: BLI
T4 chain: T3 chain

[6] = molecular target: T5, human Claudin18.1 (human, UniProt P56856); experiment: ELISA
T5 chain: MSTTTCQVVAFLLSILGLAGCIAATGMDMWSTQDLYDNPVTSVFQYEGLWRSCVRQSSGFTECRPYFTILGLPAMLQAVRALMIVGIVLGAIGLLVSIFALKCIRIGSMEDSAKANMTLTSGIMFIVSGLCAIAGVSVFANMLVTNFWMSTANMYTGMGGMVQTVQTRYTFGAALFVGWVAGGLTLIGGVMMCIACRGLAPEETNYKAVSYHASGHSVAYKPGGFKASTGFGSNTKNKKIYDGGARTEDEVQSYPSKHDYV

| Binder | Kd [1] [nM] | binding result [2] | Kd [3] [nM] | binding result [4] | Kd [5] [nM] | binding result [6] |
| --- | --- | --- | --- | --- | --- | --- |
| B1 | 3 |  |  |  |  |  |
| B2 | 1.45 | no binding | 0.216 | no binding | 1.73 | no binding |
| B3 | 1.59 |  | 5.31 |  |  |  |

Source: patent US20260317420 (published 2026)
